The supplement of paper PMC10567573

B1: PRAME (parent)
chain: KKLKIFAMPMQDIKMILKMVQLDS
B2: C1orf137 (parent)
chain: LPQETNLTLKVCKPQAPQKLDPTL

Variants of: B1
Assay: protein stability index of a GFP-peptide fusion (GPS, HEK-293T) (PSI 1-6); higher = more stable
Conditions: c terminus: a fixed tail appended
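Also: lentivirally expressed fusions sorted by FACS into six bins by GFP to DsRed ratio, PSI derived from sequencing read proportions per bin multiplied by bin number.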

Protein stability index of substitutions, site by site:
M10: A 1.93; C 2.5; D 2.39; E 3.14; G 3.5; H 2.12; K 2.06; N 2.7; P 2.72; Q 1.93; R 2.7; T 2.93; V 3.74; Y 2.52
Q11: A 3.71; C 2.32; D 2.47; F 3.43; G 3.84; H 3.43; I 2.57; K 3.32; L 2.85; M 2.31; N 2.79; P 3.82; R 4.36; S 2.52; T 2.39; V 2.19; W 3.08; Y 3.22
D12: A 2.14; C 3.07; E 2.5; F 3.57; I 1.63; K 2.75; L 2.29; M 4.16; N 2.5; P 3.3; Q 4.16; R 2.17; T 3.29; W 3.37; Y 3.17
I13: A 2.39; D 2.66; E 1.65; F 2.23; H 1.84; K 1.44; M 2.88; N 1.54; P 1.32; Q 1.93; R 2.96; S 2.45; T 1.64; V 3.55; W 1.03; Y 4.03
K14: C 2.52; D 3.25; E 2.98; G 2.88; H 3.17; I 3.61; N 3.16; P 3.66; Q 2.64; R 1.65; S 1.59; T 1.64; V 2.44; Y 2.42
M15: A 2.66; C 2.02; D 2.22; E 2.36; F 2.51; G 2.96; H 3.17; I 2.09; K 3.85; N 1.59; P 1.81; Q 1; R 2.25; T 2.15; V 2.85
I16: C 2.5; D 1.73; E 1.47; F 3.41; G 2.32; H 2.66; K 1.69; L 1.71; N 1.23; P 1.63; Q 1.6; R 1.75; S 3.21; T 3.06; V 2.48; W 2.79; Y 3.04
L17: A 2.66; C 2.73; D 1.88; E 2.04; G 1.71; H 2.39; I 2.19; K 2.11; M 2.59; N 1.5; P 2.27; Q 1.62; R 1.75; S 2.1; T 1.12; V 2.64; W 2.06; Y 3.8
K18: A 3.37; D 2.22; E 3.69; F 3.27; G 3.49; H 2.65; L 3.04; M 2.67; N 1.99; P 1.56; Q 2.18; R 3.54; S 2.19; T 2.42; V 4.3; W 3.98; Y 2.62
M19: C 3.53; D 2.13; F 2.46; G 2.15; H 2.59; I 2.81; N 2.21; P 1.69; Q 2.89; S 2.44; T 3.38; W 2.46
V20: A 3.51; C 2.55; D 2.19; E 2.33; F 2.98; H 3.51; I 4.22; K 4.07; N 2.32; P 2.22; Q 2.9; R 2.37; S 2.01; T 3.9; Y 2.21
Q21: A 3.36; C 3.19; E 2.03; G 3.64; I 2.69; K 3.17; M 2.33; N 2.82; P 3.91; T 3.42; W 1.98
L22: A 1.13; C 1.88; D 4.71; H 3.28; I 3.88; K 1.95; M 1.42; P 3.45; Q 2.51; R 2.83; V 3.63; Y 2.57
D23: E 3.61; F 3.54; I 2.33; K 2.4; L 3.12; M 1.94; N 2.18; P 3.05; S 3.79; T 2.86; W 2.58
S24: A 3.45; D 4.26; E 4.07; F 2.85; G 2.47; H 2.91; I 2.49; K 2.42; M 3.73; N 2.87; P 1.9; Q 2.02; R 3.56; T 2.39; V 2.5

Variants of: B2
Assay: as above
Conditions: c terminus: a fixed tail appended

Protein stability index of substitutions, site by site:
L1: A 4.06; C 4; D 4.73; E 4.8; F 2.79; H 3.36; I 3.97; K 3.93; M 4.04; N 3.77; P 4.65; Q 4.38; R 3.48; S 4.46; T 4.44; V 4.34; W 3.98; Y 3.04
P2: A 3.84; C 3.27; D 4.3; E 4.18; F 2.85; G 3.79; H 3.5; I 3.49; K 3.06; L 2.65; M 2.23; N 3.46; Q 3.76; R 2.88; S 2.8; T 3.92; V 3.13; W 2.16; Y 3.14
Q3: A 4.3; C 4.12; D 4.33; E 4.59; F 3.08; G 3.63; H 3.6; I 3.1; K 3.96; L 3.58; M 3.6; N 3.53; P 3.79; R 3.29; S 3.8; T 4.17; V 3.73; W 2.54; Y 3.34
E4: A 3.77; C 2.37; D 3.7; F 2.44; G 3.36; H 3.08; I 2.51; K 3.46; L 2.6; M 2.82; N 3.94; P 4.22; Q 3.74; R 2.64; S 3.12; T 3.59; V 3.03; W 2.32; Y 2.98
T5: A 4.02; C 2.99; D 4.38; E 4.2; F 2.77; G 3.75; H 4; I 2.6; K 3.64; L 2.69; M 3.58; N 3.69; P 4.59; Q 4.33; R 3.6; S 3.9; V 3.04; Y 2.88
N6: A 3.88; C 3.3; D 4.38; E 4.15; F 3.36; G 4.6; H 4.23; I 2.42; K 3.27; L 3.57; M 3.22; Q 3.94; R 3.31; S 3.56; T 3.71; V 3.29; W 3.2; Y 2.99
L7: A 4.25; C 3.53; D 4.94
